± gives the uncertainty stated by the source.
Test: self-splicing fitness, log relative to wild type (ln ratio); higher = more splicing; Tetrahymena group I intron in knt gene, E. coli kanamycin selection, DiMSum; sequences stand for … in CUCUCU…GGAGGGAAAAGUUAUCAGGCAUGCACCUGGUAGCUAGUCUUUAAACCAAUAGAUUGCAUCGGUUUAAAAGGCAAGACCGUCAAAUUGCGGGAAAGGGGUCAACAGCCGUUCAGUACCAAGUCUCAGGGGAAACUUUGAGAUGGCCUUGCAAAGGGUAUGGUAAUAAGCUGACGGACAUGGUCCUAACCACGCAGCCAAGUCCUAAGUCAACAGAUCUUCUGUUGAUAUGGAUGCAGUUCACAGACUAAAUGUCGGUCGGGGAAGAUGUAUUCUUCUCAUAAGAUAUAGUCGGACCUCUCCUUAAUGGGAGCUAGCGGAUGAAGUGAUGCAACACUGGAGCCGCUGGGAACUAAUUUGUAUGCGAAAGUAUAUUGAUUAGUUUUGGAGUACUCGUGGUCG
Procedure, shortened: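 A randomised library covering all eight P1ex-region intron nucleotides was built with the intron in the knt kanamycin-resistance gene on pET-22b(+) and held in E. coli BL21(DE3). Cells were grown overnight at 37°C or 30°C on LB agar, with or without 25 μg/mL kanamycin, plus 100 μg/mL carbenicillin, 50 μM IPTG and 0.2% rhamnose, and pooled colonies were amplicon-sequenced on an Illumina HiSeq 2500. DiMSum fitness is the error-weighted combination of wild-type-normalised replicate fold changes, kanamycin versus none.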

Sequence | self-splicing fitness (ln) (30 °C) | self-splicing fitness (ln) (37 °C)
ACAAAGCAAUAUUACGAUCC | -1.55 ± 0.071 | 0.389 ± 0.1
ACAAAGCAAUAUUACGCAAU | -1.87 ± 0.078 | -1.6 ± 0.092
ACAAAGCAAUAUUACGCCGA | -2.13 ± 0.15 | -0.465 ± 0.13
ACAAAGCAAUAUUACGCGGG | -2.47 ± 0.09 | -1.01 ± 0.09
ACAAAGCAAUAUUACGCUAC | -3.07 ± 0.28 | -2.43 ± 0.33
ACAAAGCAAUAUUACGCUGC | -3.63 ± 0.25 | -1.26 ± 0.21
ACAAAGCAAUAUUACGCUUU | -3.64 ± 0.24 | -2.16 ± 0.17
ACAAAGCAAUAUUACGGAAC | -3.33 ± 0.13 | -2.43 ± 0.15
ACAAAGCAAUAUUACGGAGC | -3.17 ± 0.13 | -2.62 ± 0.15
ACAAAGCAAUAUUACGGAUA | -2.14 ± 0.2 | -1.68 ± 0.17
ACAAAGCAAUAUUACGGCAC | -1.61 ± 0.079 | -0.954 ± 0.12
ACAAAGCAAUAUUACGGCAG | -1.1 ± 0.064 | -0.658 ± 0.088
ACAAAGCAAUAUUACGGGUA | -1.86 ± 0.09 | -0.94 ± 0.087
ACAAAGCAAUAUUACGGGUC | -3.18 ± 0.14 | -1.76 ± 0.2
ACAAAGCAAUAUUACGGUGC | -2.89 ± 0.12 | -2.32 ± 0.12
ACAAAGCAAUAUUACGUAUU | -1.94 ± 0.086 | -1.18 ± 0.11
ACAAAGCAAUAUUACGUCAA | -3.26 ± 0.25 | -1.66 ± 0.14
ACAAAGCAAUAUUACGUCUC | -4.03 ± 0.18 | -2.09 ± 0.14
ACAAAGCAAUAUUACGUUAG | -2.73 ± 0.11 | -2.69 ± 0.17
ACAAAGCAAUAUUACGUUGG | -2.44 ± 0.068 | -1.57 ± 0.079
ACACAGCAAUAUUACGAAUC | -3.22 ± 0.15 | -2.63 ± 0.21
ACACAGCAAUAUUACGACCA | -0.337 ± 0.085 | 0.147 ± 0.093
ACACAGCAAUAUUACGACGG | -0.479 ± 0.073 | -0.0997 ± 0.11
ACACAGCAAUAUUACGAGCG | -0.734 ± 0.074 | -0.104 ± 0.088

Sequence | self-splicing fitness (ln) (30 °C) | self-splicing fitness (ln) (37 °C)
ACACAGCAAUAUUACGAGGU | -2.85 ± 0.13 | -2.04 ± 0.14
ACACAGCAAUAUUACGAUCG | -0.738 ± 0.077 | -0.032 ± 0.1
ACACAGCAAUAUUACGAUGG | -1.53 ± 0.064 | -0.66 ± 0.082
ACACAGCAAUAUUACGCAAG | -1.7 ± 0.1 | -0.825 ± 0.11
ACACAGCAAUAUUACGCAGC | -3.73 ± 0.19 | -2.47 ± 0.17
ACACAGCAAUAUUACGCGAU | -3.11 ± 0.11 | -2.02 ± 0.11
ACACAGCAAUAUUACGCGCC | -0.614 ± 0.11 | -1.13 ± 0.1
ACACAGCAAUAUUACGCUAC | -3.73 ± 0.35 | -2.63 ± 0.26
ACACAGCAAUAUUACGCUAU | -2.81 ± 0.082 | -1.53 ± 0.079
ACACAGCAAUAUUACGGAAU | -2.58 ± 0.084 | -2.31 ± 0.15
ACACAGCAAUAUUACGGACU | -0.884 ± 0.054 | 0.0735 ± 0.063
ACACAGCAAUAUUACGGAGA | -4.21 ± 0.21 | -2.23 ± 0.14
ACACAGCAAUAUUACGGCGC | -0.533 ± 0.067 | 0.309 ± 0.079
ACACAGCAAUAUUACGGGGA | -2.3 ± 0.077 | -0.729 ± 0.067
ACACAGCAAUAUUACGGUGG | -2.44 ± 0.08 | -1.67 ± 0.099
ACACAGCAAUAUUACGUCCA | -1.09 ± 0.089 | -0.474 ± 0.096
ACACAGCAAUAUUACGUCUU | -1.17 ± 0.046 | 0.012 ± 0.058
ACACAGCAAUAUUACGUGGA | -2.25 ± 0.096 | -1.18 ± 0.066
ACAGAGCAAUAUUACGAAAU | -2.57 ± 0.45 | -1.01 ± 0.29
ACAGAGCAAUAUUACGAAGU | -2.65 ± 0.14 | -2.58 ± 0.29
ACAGAGCAAUAUUACGAGGA | -3.04 ± 0.21 | -2.49 ± 0.23
ACAGAGCAAUAUUACGAUGG | -3.24 ± 0.14 | -3.32 ± 0.23
ACAGAGCAAUAUUACGCACA |  | -1.39 ± 0.36
ACAGAGCAAUAUUACGCACG | -3.11 ± 0.22 | -3.43 ± 0.25

Sequence | self-splicing fitness (ln) (30 °C) | self-splicing fitness (ln) (37 °C)
ACAGAGCAAUAUUACGCCAC | -2.45 ± 0.38 | -1.33 ± 0.43
ACAGAGCAAUAUUACGCCAU | -3.46 ± 0.42 | -1.97 ± 0.23
ACAGAGCAAUAUUACGCGAG | -2.31 ± 0.14 | -2.43 ± 0.16
ACAGAGCAAUAUUACGCGGA | -3.57 ± 0.29 | -2.62 ± 0.19
ACAGAGCAAUAUUACGCGGC | -3.41 ± 0.3 | -2.18 ± 0.37
ACAGAGCAAUAUUACGCGGU | -4.3 ± 0.41 | -2.43 ± 0.28
ACAGAGCAAUAUUACGCUAC | -3.21 ± 0.43 | 
ACAGAGCAAUAUUACGCUCG | -1.05 ± 0.13 | -1.12 ± 0.2
ACAGAGCAAUAUUACGCUGA | -3.27 ± 0.19 | -1.47 ± 0.16
ACAGAGCAAUAUUACGGAAC |  | -1.97 ± 0.36
ACAGAGCAAUAUUACGGGCC | -1.79 ± 0.29 | 
ACAGAGCAAUAUUACGGGGG | -3.7 ± 0.19 | -2.31 ± 0.2
ACAGAGCAAUAUUACGGGUA | -2.47 ± 0.36 | -3 ± 0.31
ACAGAGCAAUAUUACGGUAG | -2.61 ± 0.13 | -2.49 ± 0.18
ACAGAGCAAUAUUACGGUUC | -3.68 ± 0.23 | -2.16 ± 0.22
ACAGAGCAAUAUUACGGUUG | -3.68 ± 0.24 | -3.02 ± 0.22
ACAGAGCAAUAUUACGUGGC | -3.8 ± 0.25 | -2.31 ± 0.32
ACAGAGCAAUAUUACGUUCA | -2.1 ± 0.14 | -2.33 ± 0.2
ACAGAGCAAUAUUACGUUGA | -2.69 ± 0.21 | -3.28 ± 0.27
ACAUAGCAAUAUUACGAACA | 0.105 ± 0.14 | -1.05 ± 0.17
ACAUAGCAAUAUUACGAGAU | -4.08 ± 0.29 | -2.66 ± 0.26
ACAUAGCAAUAUUACGAGUC | -3.91 ± 0.27 | -3.33 ± 0.25
ACAUAGCAAUAUUACGAUUA | -0.756 ± 0.1 | -0.602 ± 0.14
ACAUAGCAAUAUUACGCAAU | -3.57 ± 0.21 | -2.67 ± 0.24

Sequence | self-splicing fitness (ln) (30 °C) | self-splicing fitness (ln) (37 °C)
ACAUAGCAAUAUUACGCCAG | -2.65 ± 0.18 | -1.5 ± 0.21
ACAUAGCAAUAUUACGCCCC | -1.98 ± 0.39 | -0.782 ± 0.41
ACAUAGCAAUAUUACGGAGC |  | -0.767 ± 0.15
ACAUAGCAAUAUUACGGAUC | -3.05 ± 0.15 | -1.21 ± 0.12
ACAUAGCAAUAUUACGGAUG | -1.77 ± 0.12 | -1.6 ± 0.14
ACAUAGCAAUAUUACGGCCG | -0.333 ± 0.15 | 0.385 ± 0.24
ACAUAGCAAUAUUACGGCUA | -0.773 ± 0.055 | -0.391 ± 0.068
ACAUAGCAAUAUUACGGGGC | -2.87 ± 0.12 | -1.81 ± 0.13
ACAUAGCAAUAUUACGGGGG | -3.09 ± 0.14 | -2.58 ± 0.2
ACAUAGCAAUAUUACGGUGA | -0.929 ± 0.066 | -0.247 ± 0.086
ACAUAGCAAUAUUACGUCCG | -1.62 ± 0.11 | -1.2 ± 0.14
ACAUAGCAAUAUUACGUGAG | -0.863 ± 0.036 | -0.206 ± 0.062
ACAUAGCAAUAUUACGUUGC | -4.02 ± 0.33 | -2 ± 0.28
ACCAAGCAAUAUUACGACGA | -1.11 ± 0.12 | -0.623 ± 0.13
ACCAAGCAAUAUUACGCGGA | -1.11 ± 0.068 | -0.537 ± 0.077
ACCAAGCAAUAUUACGCGUA | -1.11 ± 0.075 | -0.487 ± 0.075
ACCAAGCAAUAUUACGCUUC | -3.27 ± 0.15 | -1.71 ± 0.12
ACCAAGCAAUAUUACGGAAC | -3.63 ± 0.21 | -1.99 ± 0.2
ACCAAGCAAUAUUACGGACC | -0.368 ± 0.098 | -0.214 ± 0.12
ACCAAGCAAUAUUACGGCAU | -0.931 ± 0.049 | -0.0435 ± 0.066
ACCAAGCAAUAUUACGGGCA | -0.376 ± 0.06 | -0.0824 ± 0.072
ACCAAGCAAUAUUACGGGGU | -3.66 ± 0.14 | -3.5 ± 0.19
ACCAAGCAAUAUUACGGGUC | -4.12 ± 0.17 | -2.67 ± 0.14
ACCAAGCAAUAUUACGGGUU | -4.06 ± 0.14 | -3.14 ± 0.17

Source: the supplement of paper PMC7877785
